Laboratory results published in patent publication US20250262210A1 (TRUSTEES OF COLUMBIA UNIVERSITY IN THE CITY OF NEW YORK, published 2025).

Legend:
Test in all cases: IP/MS, LZTR1 wild type-FLAG, U87
[1] = target: ARHGEF28 (human, UniProt Q8N1W1 1-1705, limits assumed)
Procedure, shortened: (§1)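 Read-out: spectral counts from LC-MS/MS (Orbitrap Fusion) after MaxQuant identification. Variable modifications were Met oxidation, protein N-terminal acetylation and N/Q deamidation.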

[2] = target: T1, RAPH1 (human, UniProt Q70E73 1-1250, limits assumed)
T1 sequence (looked up): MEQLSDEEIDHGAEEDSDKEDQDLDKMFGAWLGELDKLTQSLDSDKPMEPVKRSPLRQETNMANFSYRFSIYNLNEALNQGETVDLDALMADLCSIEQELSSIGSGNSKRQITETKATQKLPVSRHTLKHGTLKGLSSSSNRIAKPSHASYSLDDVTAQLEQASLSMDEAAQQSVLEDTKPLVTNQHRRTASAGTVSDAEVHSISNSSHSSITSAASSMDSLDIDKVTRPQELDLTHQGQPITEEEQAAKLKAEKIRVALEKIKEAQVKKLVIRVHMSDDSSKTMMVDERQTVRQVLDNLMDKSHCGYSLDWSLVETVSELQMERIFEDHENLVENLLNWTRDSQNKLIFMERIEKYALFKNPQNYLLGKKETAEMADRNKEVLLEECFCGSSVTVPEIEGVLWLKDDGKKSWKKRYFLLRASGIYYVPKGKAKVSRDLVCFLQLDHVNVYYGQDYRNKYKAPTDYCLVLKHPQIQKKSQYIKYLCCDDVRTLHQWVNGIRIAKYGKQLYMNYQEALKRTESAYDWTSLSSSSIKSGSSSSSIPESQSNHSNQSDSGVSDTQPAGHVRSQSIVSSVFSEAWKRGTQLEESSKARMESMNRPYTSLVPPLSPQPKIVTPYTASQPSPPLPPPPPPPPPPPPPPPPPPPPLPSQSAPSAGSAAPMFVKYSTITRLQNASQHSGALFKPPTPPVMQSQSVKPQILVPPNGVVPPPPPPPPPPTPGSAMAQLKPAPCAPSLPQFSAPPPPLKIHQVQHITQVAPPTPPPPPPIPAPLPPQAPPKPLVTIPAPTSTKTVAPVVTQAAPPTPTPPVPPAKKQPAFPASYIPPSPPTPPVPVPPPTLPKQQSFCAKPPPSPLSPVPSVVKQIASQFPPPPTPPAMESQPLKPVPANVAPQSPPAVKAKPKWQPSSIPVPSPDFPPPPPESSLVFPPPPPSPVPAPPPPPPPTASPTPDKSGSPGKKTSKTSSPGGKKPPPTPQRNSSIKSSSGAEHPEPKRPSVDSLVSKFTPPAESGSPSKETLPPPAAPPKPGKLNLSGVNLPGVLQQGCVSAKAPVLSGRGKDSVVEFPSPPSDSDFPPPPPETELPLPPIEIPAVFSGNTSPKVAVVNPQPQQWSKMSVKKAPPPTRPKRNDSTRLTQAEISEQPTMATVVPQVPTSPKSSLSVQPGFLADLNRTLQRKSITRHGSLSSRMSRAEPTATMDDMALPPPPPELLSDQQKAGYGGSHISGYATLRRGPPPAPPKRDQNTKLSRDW
Procedure, shortened: as §1

[3] = target: T2, EMC1 (human, UniProt Q8N766 23-993, limits assumed)
T2 sequence (looked up): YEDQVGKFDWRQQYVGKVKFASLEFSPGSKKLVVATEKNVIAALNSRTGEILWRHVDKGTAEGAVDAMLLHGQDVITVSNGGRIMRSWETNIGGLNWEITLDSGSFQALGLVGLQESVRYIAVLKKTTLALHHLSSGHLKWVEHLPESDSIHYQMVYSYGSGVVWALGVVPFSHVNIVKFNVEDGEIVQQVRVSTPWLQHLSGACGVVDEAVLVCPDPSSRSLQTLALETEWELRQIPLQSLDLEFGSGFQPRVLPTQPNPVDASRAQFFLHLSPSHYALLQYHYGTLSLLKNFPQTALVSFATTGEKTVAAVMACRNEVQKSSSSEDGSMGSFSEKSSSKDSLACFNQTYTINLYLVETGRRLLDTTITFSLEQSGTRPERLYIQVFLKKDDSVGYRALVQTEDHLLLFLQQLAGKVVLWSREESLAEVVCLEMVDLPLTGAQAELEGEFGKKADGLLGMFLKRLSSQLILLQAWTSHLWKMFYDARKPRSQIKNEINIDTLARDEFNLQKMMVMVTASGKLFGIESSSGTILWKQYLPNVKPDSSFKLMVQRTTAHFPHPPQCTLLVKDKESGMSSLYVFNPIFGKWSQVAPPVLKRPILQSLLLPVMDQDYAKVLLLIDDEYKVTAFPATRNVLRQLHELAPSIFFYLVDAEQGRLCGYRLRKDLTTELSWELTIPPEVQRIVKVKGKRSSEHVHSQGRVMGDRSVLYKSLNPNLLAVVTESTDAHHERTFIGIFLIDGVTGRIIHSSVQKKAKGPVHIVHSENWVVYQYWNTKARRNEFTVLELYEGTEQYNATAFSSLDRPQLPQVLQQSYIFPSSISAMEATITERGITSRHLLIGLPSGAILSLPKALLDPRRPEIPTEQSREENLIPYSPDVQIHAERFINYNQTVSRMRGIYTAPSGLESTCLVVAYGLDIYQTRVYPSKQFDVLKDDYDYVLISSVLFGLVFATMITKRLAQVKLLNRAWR
Procedure, shortened: as §1

Measured: binding result

ARHGEF28, sequence (Q8N1W1 whole entry, the tested form may be a part): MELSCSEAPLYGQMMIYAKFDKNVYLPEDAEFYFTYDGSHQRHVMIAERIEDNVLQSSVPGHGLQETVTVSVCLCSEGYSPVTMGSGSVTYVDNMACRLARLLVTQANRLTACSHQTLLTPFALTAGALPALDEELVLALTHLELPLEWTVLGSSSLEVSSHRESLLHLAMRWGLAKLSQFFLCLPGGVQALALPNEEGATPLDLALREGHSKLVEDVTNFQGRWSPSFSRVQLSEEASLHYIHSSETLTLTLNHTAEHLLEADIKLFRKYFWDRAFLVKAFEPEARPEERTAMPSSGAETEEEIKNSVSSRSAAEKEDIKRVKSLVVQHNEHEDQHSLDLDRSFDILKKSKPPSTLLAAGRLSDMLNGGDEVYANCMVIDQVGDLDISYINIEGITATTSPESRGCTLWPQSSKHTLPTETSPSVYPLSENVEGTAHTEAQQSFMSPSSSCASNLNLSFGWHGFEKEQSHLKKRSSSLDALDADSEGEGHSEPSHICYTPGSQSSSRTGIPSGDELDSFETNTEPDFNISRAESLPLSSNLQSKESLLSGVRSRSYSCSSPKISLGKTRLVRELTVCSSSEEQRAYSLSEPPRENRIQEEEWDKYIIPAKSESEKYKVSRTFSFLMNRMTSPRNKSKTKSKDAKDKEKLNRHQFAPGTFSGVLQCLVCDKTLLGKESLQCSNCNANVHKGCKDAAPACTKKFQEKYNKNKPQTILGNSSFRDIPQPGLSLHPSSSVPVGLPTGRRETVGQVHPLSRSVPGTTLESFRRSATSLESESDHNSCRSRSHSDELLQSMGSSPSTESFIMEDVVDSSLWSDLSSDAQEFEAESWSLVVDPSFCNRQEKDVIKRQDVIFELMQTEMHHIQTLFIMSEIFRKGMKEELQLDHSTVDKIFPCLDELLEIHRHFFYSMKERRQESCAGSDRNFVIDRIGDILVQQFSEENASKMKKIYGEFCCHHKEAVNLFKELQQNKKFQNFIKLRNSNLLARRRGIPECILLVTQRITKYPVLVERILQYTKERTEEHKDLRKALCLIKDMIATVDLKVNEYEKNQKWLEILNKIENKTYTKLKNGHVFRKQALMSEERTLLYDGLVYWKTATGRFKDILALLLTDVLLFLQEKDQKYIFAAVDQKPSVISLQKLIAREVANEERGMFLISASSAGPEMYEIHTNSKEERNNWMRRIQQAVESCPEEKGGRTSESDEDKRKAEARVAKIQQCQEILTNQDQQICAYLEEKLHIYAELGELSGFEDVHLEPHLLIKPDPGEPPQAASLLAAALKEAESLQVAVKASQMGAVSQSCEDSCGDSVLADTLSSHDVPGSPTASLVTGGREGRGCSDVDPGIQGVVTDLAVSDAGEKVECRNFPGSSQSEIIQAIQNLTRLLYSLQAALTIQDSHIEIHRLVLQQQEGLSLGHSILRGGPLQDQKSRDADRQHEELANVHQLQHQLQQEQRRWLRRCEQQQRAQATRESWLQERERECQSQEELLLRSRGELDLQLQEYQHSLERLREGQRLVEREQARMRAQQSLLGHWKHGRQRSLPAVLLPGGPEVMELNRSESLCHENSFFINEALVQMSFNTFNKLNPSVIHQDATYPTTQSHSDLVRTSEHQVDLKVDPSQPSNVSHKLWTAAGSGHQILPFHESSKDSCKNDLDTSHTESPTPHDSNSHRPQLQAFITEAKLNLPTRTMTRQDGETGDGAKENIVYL

B1: LZTR1-FLAG (other, human, UniProt Q8N653 1-840, looked up)
chain: MAGPGSTGGQIGAAALAGGARSKVAPSVDFDHSCSDSVEYLTLNFGPFETVHRWRRLPPCDEFVGARRSKHTVVAYKDAIYVFGGDNGKTMLNDLLRFDVKDCSWCRAFTTGTPPAPRYHHSAVVYGSSMFVFGGYTGDIYSNSNLKNKNDLFEYKFATGQWTEWKIEGRLPVARSAHGATVYSDKLWIFAGYDGNARLNDMWTIGLQDRELTCWEEVAQSGEIPPSCCNFPVAVCRDKMFVFSGQSGAKITNNLFQFEFKDKTWTRIPTEHLLRGSPPPPQRRYGHTMVAFDRHLYVFGGAADNTLPNELHCYDVDFQTWEVVQPSSDSEVGGAEVPERACASEEVPTLTYEERVGFKKSRDVFGLDFGTTSAKQPTQPASELPSGRLFHAAAVISDAMYIFGGTVDNNIRSGEMYRFQFSCYPKCTLHEDYGRLWESRQFCDVEFVLGEKEECVQGHVAIVTARSRWLRRKITQARERLAQKLEQEAAPVPREAPGVAAGGARPPLLHVAIREAEARPFEVLMQFLYTDKIKYPRKGHVEDVLLIMDVYKLALSFQLCRLEQLCRQYIEASVDLQNVLVVCESAARLQLSQLKEHCLNFVVKESHFNQVIMMKEFERLSSPLIVEIVRRKQQPPPRTPLDQPVDIGTSLIQDMKAYLEGAGAEFCDITLLLDGHPRPAHKAILAARSSYFEAMFRSFMPEDGQVNISIGEMVPSRQAFESMLRYIYYGEVNMPPEDSLYLFAAPYYYGFYNNRLQAYCKQNLEMNVTVQNVLQILEAADKTQALDMKRHCLHIIVHQFTKVSKLPTLRSLSQQLLLDIIDSLASHISDKQCAELGADI
notes: Expressed in HEK 293T, HeLa or U87 cells; used as cell lysate; also called LZTR1 wild type-FLAG; LZTR1 WT; not shown: FLAG tag at the C-terminus
binds: all assays above
